The test system of assay [1] is MDAMB435/5T4 cells. The assay can be described thus: Modulation/internalization of antibodies by MDAMB435/5T4 cells (FACS). The note with it: 37° C., 4 or 24 hours, 4C. It is filed as cell-based, human. The procedure:
FIGS. 4A-4C are line graphs that show modulation of H8, A1, A2, and A3 antibodies by MDAMB435/5T4 cells. […] MCF, mean cellular fluorescence; supt, supernatant.
To assess internalization of antibodies upon binding to 5T4 antigen, the amount of H8 and A1 antibodies detected at the cell surface versus in the supernatant was determined as a function of time. Non-enzymatically dissociated MDAMB435/5T4 cells (human breast cancer cells) were exposed to anti-5T4 antibodies for 1 hour at 4° C. Cells were washed and incubated in media at 37° C. for 4 hours or 24 hours. The amount of antibody bound to cellular membranes versus unbound antibody (i.e., presence in the supernatant) was determined using FACS.

The subject of assay [2] is human/mouse 173-258 5T4 chimera. Put plainly: Epitope mapping ELISA, human/mouse 5T4 chimeras. Also noted: key: +: binding; −: no binding; +/−: partial binding. The format is binding. On the procedure: (§1) To identify the epitopes to which each of the A1, A2, A3, and H8 antibodies bind, ELISA assays were performed using (1) 5T4 ectodomain Fc constructs with deleted or mutated sequences, and (2) 5T4 chimera constructs transiently expressed in COS-1 cells. The ectodomain includes the amino-terminal region, two leucine-rich repeats, and the intervening hydrophilic region. Fusion proteins containing a 5T4 ectodomain and a Fc constant regions from human IgG1 were prepared using mouse 5T4 (amino acids 1-361), rat 5T4 (amino acids 1-361), cynomologous monkey 5T4 (amino acids 1-355), chimpanzee 5T4 (amino acids 1-355), and black-tailed marmoset (amino acids 1-355). The 5T4 chimera constructs are depicted in FIG. 5. The binding results are summarized in Table 5, which indicates specific binding, partial binding, or lack of binding, by each of the H8, A1, A2, and A3 antibodies.

In assay [3] the target is T1, human/mouse 173-361 5T4 chimera (Homo sapiens, UniProt Q13641, A205S/A340S/D319A/E189Q/E336D/G276S/G317D/H238Y/H301Y/I287V/I347V/INS199AFEGMV/L204R/L281W/P285A/P346A/P350Q/Q210R/Q282H/Q316P/R193G/R207L/R213T/R288K/S242R/T307A/V176E/V200A/V229L/V252A/V333G/Y224F/Y325F).
T1 construct: made in house; host or cells: COS-1 cells (transient)
T1 sequence (Q13641 with tags, fused parts or gaps V176E/E189Q/R193G/INS199AFEGMV/V200A/L204R/A205S/R207L/Q210R/R213T/Y224F/V229L/H238Y/S242R/V252A/G276S/L281W/Q282H/P285A/I287V/R288K/H301Y/T307A/Q316P/G317D/D319A/Y325F/V333G/E336D/A340S/P346A/I347V/P350Q limits assumed): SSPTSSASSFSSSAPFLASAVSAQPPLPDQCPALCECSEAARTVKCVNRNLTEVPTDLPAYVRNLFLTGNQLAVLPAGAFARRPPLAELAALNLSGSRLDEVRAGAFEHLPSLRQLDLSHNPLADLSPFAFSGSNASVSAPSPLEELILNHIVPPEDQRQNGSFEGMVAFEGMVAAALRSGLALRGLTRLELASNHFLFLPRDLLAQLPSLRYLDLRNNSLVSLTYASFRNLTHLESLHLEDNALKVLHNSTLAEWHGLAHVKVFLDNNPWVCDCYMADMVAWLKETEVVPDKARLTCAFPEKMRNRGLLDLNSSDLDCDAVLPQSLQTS
The assay can be described thus: Epitope mapping ELISA, human/mouse 5T4 chimeras. Also noted: key: +: binding; −: no binding; +/−: partial binding. It is filed as binding. The procedure: as §1
A general note: In an ELISA, binding on a coated surface is turned into a signal by an enzyme label.

The subject of assay [4] is human/mouse 282-361 5T4 chimera (with or without N-link at position 344). Put plainly: Epitope mapping ELISA, human/mouse 5T4 chimeras. The format is binding. Also noted: key: +: binding; −: no binding; +/−: partial binding. The conditions noted are these: human/mouse 282-361 (with or without N-link at position 344). On the procedure:
as §1

For assay [5], the system named is human/mouse 83-163 5T4 chimera. The assay can be described thus: Epitope mapping ELISA, human/mouse 5T4 chimeras. It is filed as binding. Also noted: key: +: binding; −: no binding; +/−: partial binding. The procedure:
as §1

Assay [6] deals with T2, human 5T4 ectodomain Fc fusion protein (Homo sapiens, UniProt Q13641).
T2 construct: Human; 100; 1-355; made in house; host or cells: COS-1 cells (transient)
T2 sequence (Q13641 32-355): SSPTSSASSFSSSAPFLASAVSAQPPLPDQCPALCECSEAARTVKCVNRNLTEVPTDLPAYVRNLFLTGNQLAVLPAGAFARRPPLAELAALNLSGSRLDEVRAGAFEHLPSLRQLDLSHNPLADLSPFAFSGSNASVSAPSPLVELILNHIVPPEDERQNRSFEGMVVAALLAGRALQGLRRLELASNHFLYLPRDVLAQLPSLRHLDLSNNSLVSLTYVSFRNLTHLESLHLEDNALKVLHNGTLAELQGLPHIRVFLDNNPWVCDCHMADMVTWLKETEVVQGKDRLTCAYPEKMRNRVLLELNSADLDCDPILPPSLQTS
Put plainly: Competitive binding assay with biotinylated humanized H8 antibody. The conditions noted are these: FIGS. 6A-6B. An excerpt:
FIGS. 6A-6B show graphical results of competitive binding of humanized H8 and each of the indicated antibodies to human 5T4 ectodomain Fc fusion protein. HuH8, humanized H8 antibody; ChiA1, chimeric A1 antibody; ChiA1+C67F, chimeric A1 antibody bearing C67F mutation; ChiA2, chimeric A2 antibody; muA2, murine A2 antibody; ChiA3, chimeric A3 antibody; ChiA3+C91Y, chimeric A3 antibody bearing C91Y mutation, muA3, murine A3 antibody; No Ab, no antibody (control).
In addition to direct binding assays, competitive binding assays were performed using biotinylated humanized H8 antibody and each of the A1, A2, or A3 antibodies. Inhibition of binding to human 5T4 was not observed, supporting that each of A1, A2, and A3 binds to a 5T4 epitope that is distinct from that bound by the H8 antibody.

B1: A2: murine anti-5T4 monoclonal antibody (IgG2b heavy chain); VH residues 19-135 of SEQ ID NO:6, VL residues 23-130 of SEQ ID NO:8 (antibody, listed as Mus musculus, V domains shown)
VH: MEWRIFLFILSGTAGVHSQVQLQQSRPELVKPGASVKMSCKASGYTFTDYVISWVKQRTGQGLEWIGEIYPGSNSIYYNEKFKGRATLTADKSSSTAYMQLSSLTSEDSAVYFCAMGGNYGFDYWGQGTTLTVSS
VL: MDFQVQIFSFLLISASVIMSRGQIVLTQSPAIMSASLGERVTLTCTASSSVNSNYLHWYQQKPGSSPKLWIYSTSNLASGVPARFSGSGSGTSYSLTISSMEAEDAATYYCHQYHRSPLTFGAGTKLELK
modifications: (1)..(18) leader sequence; (19)..(135) heavy chain variable region; (44)..(53) CDR1; (68)..(84) CDR2; (117)..(124) CDR3; (1)..(22) leader sequence; (23)..(130) light chain variable region; (46)..(56) CDR1; (73)..(79) CDR2; (112)..(120) CDR3
As to B1, in assay [1] (FIGS. 4A), the “levels of antibody at the cell surface” value was “decline over time”. Moreover, the “levels of antibody in the supernatant” value in assay [1] (FIGS. 4B) is “remain constant”. Further, the “binding to 5T4 antigen construct” value in assay [2] was “+”; in assay [3], “−”; in assay [4] it was “−”; in assay [5] it was “+”. Further, the “inhibition of binding of biotinylated humanized H8 to human 5T4” value in assay [6] was “not observed”.

The record behind these values is patent US20070231333A1, “ANTI-5T4 ANTIBODIES AND USES THEREOF” (Wyeth, priority 2006, published 2007).
